Data published in article PMC2816702 (PLoS ONE, 2010).
“And” between values parts separate entries of the source, which are not always exact repeats. Equal values may be shown once.

Tests used:
[1] = molecular target: Recombinant major apple allergen Mal d 1 (apple) (UniProt P43211); experiment: native MS; ESI FT-ICR, direct infusion, 10 mM ammonium acetate pH 6.9, allergen (monomer) concentration 9 µM
[2] = molecular target: Recombinant birch pollen profilin Bet v 2 (birch); experiment: native MS; ESI FT-ICR, direct infusion, 10 mM ammonium acetate pH 6.9, allergen (monomer) concentration 40 µM
[3] = molecular target: Recombinant major celery allergen Api g 1 (celery); experiment: native MS; ESI FT-ICR, direct infusion, 10 mM ammonium acetate pH 6.9, allergen (monomer) concentration 10 µM
[4] = molecular target: T1, Recombinant birch pollen allergen Bet v 1a (birch), P15494; experiment: native MS; ESI FT-ICR, direct infusion, 10 mM ammonium acetate pH 6.9, allergen (monomer) concentration 40 µM; conditions: remark: other sources report otherwise
T1 chain: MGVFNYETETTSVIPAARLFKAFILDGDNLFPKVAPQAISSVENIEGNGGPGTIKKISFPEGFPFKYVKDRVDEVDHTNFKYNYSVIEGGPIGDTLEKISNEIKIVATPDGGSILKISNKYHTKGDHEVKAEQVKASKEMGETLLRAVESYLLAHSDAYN

[5] = molecular target: the molecule itself; experiment: native MS; ESI FT-ICR, direct infusion, 10 mM ammonium acetate pH 6.9, allergen (monomer) concentration 10 µM
[6] = molecular target: the molecule itself; experiment: native MS; ESI FT-ICR, direct infusion, 10 mM ammonium acetate pH 6.9, allergen (monomer) concentration 8 µM
native MS = molecular target: the molecule itself; experiment: native MS

Work on “Recombinant major apple allergen Mal d 1 (from UniProt P43211 1-159) (natural protein)” yielded a stoichiometry N [1] of 2.

For “Recombinant birch pollen profilin Bet v 2 (natural protein)”, the stoichiometry N [2] was 2 and 3 and 4.

“Recombinant major celery allergen Api g 1 (natural protein)” was tested, and the stoichiometry N [3] was 2.

B1: Recombinant birch pollen allergen Bet v 1a, P15494 1-160 (natural protein)
chain: MGVFNYETETTSVIPAARLFKAFILDGDNLFPKVAPQAISSVENIEGNGGPGTIKKISFPEGFPFKYVKDRVDEVDHTNFKYNYSVIEGGPIGDTLEKISNEIKIVATPDGGSILKISNKYHTKGDHEVKAEQVKASKEMGETLLRAVESYLLAHSDAYN
For B1, the stoichiometry N [4] was 2.

B2: Recombinant timothy pollen allergen Phl p 6 (natural protein, UniProt P43215 23-132, looked up)
chain: GKATTEEQKLIEDVNASFRAAMATTANVPPADKYKTFEAAFTVSSKRNLADAVSKAPQLVPKLDEVYNAAYNAADHAAPEDKYEAFVLHFSEALRIIAGTPEVHAVKPGA
notes: source: bought: Biomay AG (recombinant)
B2 was tested, and the “stoichiometry N” value [5] was 2 and 3.

B3: Recombinant Alternaria alternata allergen Alt a 1 (natural protein)
chain: APLESRQDTASCPVTTEGDYVWKISEFYGRKPEGTYYNSLGFNIKATNGGTLDFTCSAQADKLEDHKWYSCGENSFMDFSFDSDRSGLLLKQKVSDDITYVATATLPNYCRAGGNGPKDFVCQGVADAYITLVTLPKSS
notes: as for B2
B3 was tested, and the “stoichiometry N” value [6] was 2.

B4: Recombinant rubber tree allergen Hev b 8 (natural protein)
chain: SWQTYVDDHLMCDIDGHRLTAAAIIGHDGSVWAQSSSFPQFKSDEVAAVMKDFDEPGSLAPTGLHLGGTKYMVIQGEPGAVIRGKKGSGGITVKKTGQALIIGIYDEPLTPGQCNMIVERLGDYLLDQGL
B4 was tested, and the “stoichiometry N” value [5] was 2.

B5: Bos d 5 variant A (in native Bos d 5) (natural protein)
chain: LIVTQTMKGLDIQKVAGTWYSLAMAASDISLLDAQSAPLRVYVEELKPTPEGDLEILLQKWENDECAQKKIIAEKTKIPAVFKIDALNENKVLVLDTDYKKYLLFCMENSAEPEQSLVCQCLVRTPEVDDEALEKFDKALKALPMHIRLSFNPTQLEEQCHI
In the case of B5, the “abundance ratio among the dimeric species” value (native MS) is reported as 18%.
